US20180079808A1 (AbbVie / Abbott, published 2018)

T1: rat rIL-13 (rat, UniProt P42203 19-131, limits assumed)
T1 sequence (looked up): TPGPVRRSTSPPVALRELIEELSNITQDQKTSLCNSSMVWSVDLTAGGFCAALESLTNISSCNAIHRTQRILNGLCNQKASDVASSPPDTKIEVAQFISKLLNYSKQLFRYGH

B1: 9C11 (antibody, V domains shown)
VH: QVRLQQPGAELVRPGASVKLSCKASGYTFTSSWIHWVNQRPGQGLEWIGMIHPSDSETRLNQKFKDKATLTVDKSSSTAYMQLSSPTSEDSAVYYCASTATDFDYWGQGTTLTVSS
VL: DVVLTQTPLSLPVNIGDQASISCRSTQTLLNSDGFTYLDWYLQKPGQSPQLLIYLVSNRFSGVPDRFSGSGSGTDFTLKISRVEAEDLGVYYCFQNNYLPLTFGAGTKLELKR
B2: 13C5.5, humanized recombinant immunoglobulin IgG1 (IgG1, κ) monoclonal antibody (antibody, V domains shown)
VH: EVTLRESGPGLVKPTQTLTLTCTLYGFSLSTSDMGVDWIRQPPGKGLEWLAHIWWDDVKRYNPALKSRLTISKDTSKNQVVLKLTSVDPVDTATYYCARTVSSGYIYYAMDYWGQGTLVTVSS
VL: DIQMTQSPSSLSASVGDRVTISCRASQDIRNYLNWYQQKPGKAPKLLIFYTSKLHSGVPSRFSGSGSGTDYTLTISSLQPEDIATYYCQQGNTLPLTFGGGTKVEIK
B3: Fab portion of 13C5.5 antibody (Fab, V domains shown)
VH: B2 VH
VL: B2 VL
notes: Fab used for the crystal structure with human IL-13; also called 13C5.5 Fab
B4: 5G1 (antibody, V domains shown)
VH: QVQLQQSGAELARPGTSVKLSCKASGYTFTTYGVSWVKQRTGQGLEWIGEIYPGNYNTYYNEKFRGKATLTADKSSSTAYMQLSSLTSEDSAVYFCSRWRTSYFSDYGYFDYWGQGTTLTVSS
VL: DVVMTQTPLSLPVSLGDQASISCRSSQSLVHSHGNTYLHWYLQKPGQSPKLLIYTVSNRFSGVPDRFSGSGSGTDFTLKISRVEAEDLGVYFCSQSTHVPYTFGGGTKLEIKR

Key:
cynomolgus monkey rIL-13 [1] = biological target: T2, cynomolgus monkey rIL-13 (cynomolgus monkey, UniProt Q0PW92 21-132); experiment: cell-based or functional assay
T2 sequence (Q0PW92 entry or part of it): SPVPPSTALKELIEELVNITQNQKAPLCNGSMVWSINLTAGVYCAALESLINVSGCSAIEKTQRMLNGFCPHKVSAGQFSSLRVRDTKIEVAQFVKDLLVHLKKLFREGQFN

human IL-13 wild type [2] = biological target: T3, human IL-13 wild type (human, UniProt P35225 35-146, limits assumed); experiment: cell-based or functional assay
T3 sequence (P35225 other isoform, or with tags, fused parts or gaps limits assumed): as the sequence (Q0PW92 entry or part of it) above, with S1G, K10R, V42M, N67S, R83H, V100L, Q110R counted along it

[3] = biological target: T4, human IL-13 variant (R130Q) (human, UniProt P35225 35-146, limits assumed); experiment: cell-based or functional assay
T4 sequence (P35225 35-146 limits assumed, stated change not applied): as the sequence (Q0PW92 entry or part of it) above, with S1G, K10R, V42M, N67S, R83H, V100L counted along it

[4] = biological target: T4, human IL-13 variant (R130Q); experiment: column 'Affinity, KD (nM)', hIL-13v; method not given
human IL-13 wild type [5] = biological target: T3, human IL-13 wild type; experiment: column 'Affinity, KD (nM)', hIL-13wt; method not given
cynomolgus monkey rIL-13 [6] = biological target: T2, cynomolgus monkey rIL-13; experiment: cell-based or functional assay; remark: listed apart in the source
rat rIL-13 = biological target: T1, rat rIL-13; experiment: cell-based or functional assay
human IL-13 wild type [7] = biological target: T3, human IL-13 wild type; experiment: crystal structure of the complex

Binder	Potency, IC50 (neutralisation of Cyno IL-13; assay not given) (cynomolgus monkey rIL-13 [1]) [nM]	Potency, IC50 (neutralisation of hIL-13wt; assay not given) (human IL-13 wild type [2]) [nM]	Potency, IC50 (neutralisation of hIL-13v; assay not given) [3] [nM]	Kd [4] [nM]	Kd (human IL-13 wild type [5]) [nM]	fold lower in vitro potency compared to human rIL-13 (cynomolgus monkey rIL-13 [6]) [fold]	half maximal inhibitory concentration (IC50), in vitro neutralization (cynomolgus monkey rIL-13 [6]) [nM]	IC50, in vitro neutralization (rat rIL-13) [nM]	fold lower in vitro potency compared to human rIL-13 (rat rIL-13) [fold]	binding result (human IL-13 wild type [7])
B1	0.64	0.184	0.17	0.092	0.112	–	–	–	–	–
B2	–	–	–	–	–	51	4.1	12.4	155	–
B3	–	–	–	–	–	–	–	–	–	binds
B4	0.612	0.076	0.048	0.13	0.008	–	–	–	–	–
